# Source: publication PMC8145704 (Microorganisms, 2021)
# Ends that are not written are not given here.
# B1: Peptide “SLLGRM” (core binding motif) (peptide)
# peptide: H-SLLGRM-NH2
# notes: shortened stretch of P2; source: synthetic peptide (Fmoc solid-phase synthesis, HPLC purified)
# Assays:
# Conditions in all cases: both partners purified
# [1] = molecular target: T1, WT-HBc capsids (hepatitis B core protein, genotype D; strain ayw; GenBank: V01460.1) (Hepatitis B virus (genotype D; strain …, UniProt P03146 1-183); test: ITC
# T1 construct: also called HBc-WT; HBc-CLPs; copies: 240
# P5T-HBc capsids [2] = molecular target: T2, P5T-HBc capsids (Hepatitis B virus (genotype D; strain …, UniProt P03146 1-183, P5T); test: ITC
# T2 construct: copies: 240
# L60V-HBc capsids [3] = molecular target: T3, L60V-HBc capsids (Hepatitis B virus (genotype D; strain …, UniProt P03146 1-183, L60V); test: ITC
# T3 construct: copies: 240
# F97L-HBc capsids [4] = molecular target: T4, F97L-HBc capsids (Hepatitis B virus (genotype D; strain …, UniProt P03146 1-183, F97L); test: ITC
# T4 construct: copies: 240
# [5] = molecular target: T1, WT-HBc capsids (hepatitis B core …); test: peptide or protein array
# P5T-HBc capsids [6] = molecular target: T2, P5T-HBc capsids; test: cryo-EM structure
# L60V-HBc capsids [7] = molecular target: T3, L60V-HBc capsids; test: cryo-EM structure
# F97L-HBc capsids [8] = molecular target: T4, F97L-HBc capsids; test: cryo-EM structure
binder,measurement,setting,value
B1,Kd,[1],130 µM
same,dH,[1],-8.3 kcal/mol
same,stoichiometry N,[1],0.25 peptide/HBc
GSLLGRMKGA (source: synthetic peptide) [Peptide P2 “GSLLGRMKGA”],dH,[1],-14.4 kcal/mol
same,stoichiometry N,[1],0.48 peptide/HBc
same,dH,P5T-HBc capsids [2],-7.7 kcal/mol
same,stoichiometry N,P5T-HBc capsids [2],0.45 peptide/HBc
same,dH,L60V-HBc capsids [3],-6.6 kcal/mol
same,stoichiometry N,L60V-HBc capsids [3],0.5 peptide/HBc
same,dH,F97L-HBc capsids [4],-9.9 kcal/mol
same,stoichiometry N,F97L-HBc capsids [4],0.52 peptide/HBc
GSLLGRMKGA (not fully specified (C-terminus)) [Peptide P2 “GSLLGRMKGA” on µSPOT peptide microarray],binding result,[5],binds
MHRSLLGRMKGA (source: synthetic peptide) [Peptide P1 “MHRSLLGRMKGA”],binding result,P5T-HBc capsids [6],binds
same,binding result,L60V-HBc capsids [7],binds
same,binding result,F97L-HBc capsids [8],binds
same,Kd,[1],26 µM
same,dH,[1],-9 kcal/mol
same,stoichiometry N,[1],0.45 peptide/HBc
